Test results taken from patent US20210238260A1 (published 2021).

Key:
[1] = biological target: T1, Factor VIIIa (recombinant FVIII, Kogenate FS, activated with alpha-thrombin) (UniProt P00451 20-2351); assay: same assay; ratio of KD-app of Catalyst Biosciences WT FIXa to KD-app of this FIXa
T1 construct: also called FVIIIa; cofactor
T1 sequence (looked up): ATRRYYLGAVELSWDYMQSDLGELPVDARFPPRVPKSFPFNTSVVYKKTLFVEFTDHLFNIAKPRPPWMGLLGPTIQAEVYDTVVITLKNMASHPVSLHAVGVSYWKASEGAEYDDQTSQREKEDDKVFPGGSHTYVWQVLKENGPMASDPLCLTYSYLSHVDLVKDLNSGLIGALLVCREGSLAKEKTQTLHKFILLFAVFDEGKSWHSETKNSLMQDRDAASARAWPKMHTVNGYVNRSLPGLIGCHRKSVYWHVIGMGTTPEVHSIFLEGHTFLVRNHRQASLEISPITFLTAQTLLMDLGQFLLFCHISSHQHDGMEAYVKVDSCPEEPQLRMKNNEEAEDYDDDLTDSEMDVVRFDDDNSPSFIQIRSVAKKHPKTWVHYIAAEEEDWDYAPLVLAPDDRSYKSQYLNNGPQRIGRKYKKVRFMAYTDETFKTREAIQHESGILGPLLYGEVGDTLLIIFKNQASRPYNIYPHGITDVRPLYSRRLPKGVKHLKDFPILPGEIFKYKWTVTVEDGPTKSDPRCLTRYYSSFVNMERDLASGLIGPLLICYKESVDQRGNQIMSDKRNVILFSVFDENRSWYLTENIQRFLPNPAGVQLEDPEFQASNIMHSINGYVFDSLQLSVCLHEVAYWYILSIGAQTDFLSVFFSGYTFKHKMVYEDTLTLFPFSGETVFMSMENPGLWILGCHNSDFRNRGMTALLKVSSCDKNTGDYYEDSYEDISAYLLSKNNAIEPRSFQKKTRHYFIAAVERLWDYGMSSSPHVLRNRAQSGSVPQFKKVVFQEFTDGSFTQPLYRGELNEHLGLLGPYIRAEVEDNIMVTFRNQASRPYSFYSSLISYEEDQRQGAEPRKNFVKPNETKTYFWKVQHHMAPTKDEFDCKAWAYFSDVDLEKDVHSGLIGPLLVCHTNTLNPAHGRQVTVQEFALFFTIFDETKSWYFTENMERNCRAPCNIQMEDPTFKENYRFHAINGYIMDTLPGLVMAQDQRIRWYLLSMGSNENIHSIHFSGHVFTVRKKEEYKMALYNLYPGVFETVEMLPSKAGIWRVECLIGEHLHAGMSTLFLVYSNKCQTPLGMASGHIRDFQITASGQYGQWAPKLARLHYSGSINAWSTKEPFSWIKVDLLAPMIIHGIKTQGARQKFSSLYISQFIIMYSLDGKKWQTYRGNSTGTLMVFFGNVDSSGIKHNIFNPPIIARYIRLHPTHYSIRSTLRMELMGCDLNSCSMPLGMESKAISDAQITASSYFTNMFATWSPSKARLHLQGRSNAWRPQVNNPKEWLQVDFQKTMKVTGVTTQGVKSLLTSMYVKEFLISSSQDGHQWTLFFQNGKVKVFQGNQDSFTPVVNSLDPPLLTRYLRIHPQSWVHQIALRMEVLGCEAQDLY

[2] = biological target: T1, Factor VIIIa (recombinant FVIII, …); assay: apparent functional KD (KD-app): FXa generation by FIXa with FVIIIa titrated, PC/PS vesicles, saturating FX, fluorogenic Spectrafluor FXa
[3] = biological target: T2, plasma purified human antithrombin III (AT-III), in complex with unfractionated heparin (UFH) (human, UniProt P01008 33-464); assay: K0.5: AT-III concentration (with excess UFH) for 50% inhibition of FIXa activity on Mesyl-D-CHG-Gly-Arg-AMC, 10 s incubation
T2 construct: also called AT-III/UFH

[4] = biological target: T3, Factor VIIIa (recombinant FVIII, Kogenate FS, activated with alpha-thrombin) (UniProt P00451 20-2351); assay: ratio of KD-app of wild-type FIXa (Catalyst Biosciences WT, SEQ ID NO:3) to that of the variant, same Xase assay
T3 construct: also called FVIIIa
T3 sequence (looked up): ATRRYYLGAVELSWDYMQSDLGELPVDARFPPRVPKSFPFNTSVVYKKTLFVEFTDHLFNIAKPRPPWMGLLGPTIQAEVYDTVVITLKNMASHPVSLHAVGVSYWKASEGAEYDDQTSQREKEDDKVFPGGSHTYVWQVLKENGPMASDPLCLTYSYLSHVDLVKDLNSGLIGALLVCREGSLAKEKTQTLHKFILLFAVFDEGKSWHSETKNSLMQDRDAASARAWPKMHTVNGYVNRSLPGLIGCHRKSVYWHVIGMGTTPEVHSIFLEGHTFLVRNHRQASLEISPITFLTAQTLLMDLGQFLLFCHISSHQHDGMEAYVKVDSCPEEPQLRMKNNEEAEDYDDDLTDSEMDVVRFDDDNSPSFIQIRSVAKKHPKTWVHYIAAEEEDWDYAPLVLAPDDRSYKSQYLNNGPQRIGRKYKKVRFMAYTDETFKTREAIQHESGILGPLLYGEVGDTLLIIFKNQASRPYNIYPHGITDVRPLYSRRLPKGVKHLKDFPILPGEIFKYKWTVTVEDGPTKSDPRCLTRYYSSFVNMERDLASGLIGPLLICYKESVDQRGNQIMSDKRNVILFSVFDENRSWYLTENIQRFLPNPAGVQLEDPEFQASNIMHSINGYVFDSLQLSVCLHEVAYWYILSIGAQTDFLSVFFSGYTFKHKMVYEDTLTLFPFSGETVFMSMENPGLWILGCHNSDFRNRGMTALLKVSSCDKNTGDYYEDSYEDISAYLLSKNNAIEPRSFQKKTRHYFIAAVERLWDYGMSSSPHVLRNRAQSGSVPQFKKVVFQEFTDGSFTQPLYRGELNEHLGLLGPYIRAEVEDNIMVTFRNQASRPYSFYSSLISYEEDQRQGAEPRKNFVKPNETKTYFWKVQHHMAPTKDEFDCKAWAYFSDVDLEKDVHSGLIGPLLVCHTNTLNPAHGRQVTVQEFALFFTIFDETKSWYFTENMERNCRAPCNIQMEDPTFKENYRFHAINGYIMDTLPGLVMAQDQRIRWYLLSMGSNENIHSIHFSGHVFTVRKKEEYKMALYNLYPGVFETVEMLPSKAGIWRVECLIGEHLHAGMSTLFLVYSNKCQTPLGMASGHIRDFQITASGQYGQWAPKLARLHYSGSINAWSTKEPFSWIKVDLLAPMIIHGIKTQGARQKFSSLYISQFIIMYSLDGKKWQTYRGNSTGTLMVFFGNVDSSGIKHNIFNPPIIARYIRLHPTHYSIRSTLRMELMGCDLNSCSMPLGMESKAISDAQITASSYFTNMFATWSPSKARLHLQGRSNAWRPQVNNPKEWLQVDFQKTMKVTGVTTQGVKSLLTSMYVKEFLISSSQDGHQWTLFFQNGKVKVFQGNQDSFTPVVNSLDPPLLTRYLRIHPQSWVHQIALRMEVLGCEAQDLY

[5] = biological target: T3, Factor VIIIa (recombinant FVIII, …); assay: functional cofactor affinity KD-app: fluorogenic FX activation (Xase) assay, FVIIIa titrated, PC/PS vesicles, saturating FX

Binder | KD-WT/KD-mut [1] | Kd [2] [nM] | IC50 [3] [nM] | also measured
FIXa-D104N/K106S/R318Y/R338E/E410N (enzyme) chain 1: YNSGKLEEFVQGNLERECMEEKCSFEEAREVFENTERTTEFWKQYVDGDQCESNPCLNGGSCKDDINSYECWCPFGFEGKNCELDVTCNIKNGRCEQFCKNSANNSVVCSCTEGYRLAENQKSCEPAVPFPCGRVSVSQTSKLTR chain 2: VVGGEDAKPGQFPWQVVLNGKVDAFCGGSIVNEKWIVTAAHCVETGVKITVVAGEHNIEETEHTEQKRNVIRIIPHHNYNAAINKYNHDIALLELDEPLVLNSYVTPICIADKEYTNIFLKFGSGYVSGWGRVFHKGYSALVLQYLRVPLVDRATCLESTKFTIYNNMFCAGFHEGGRDSCQGDSGGPHVTEVEGTSFLTGIISWGEECAMKGKYGIYTKVSRYVNWIKNKTKLT | 7.7 | 12.4 |  | 
FIXa-K247N/N249S/N260S (enzyme, also called K82N/N84S/N95S (chymotrypsin numbering)) chain 1: YNSGKLEEFVQGNLERECMEEKCSFEEAREVFENTERTTEFWKQYVDGDQCESNPCLNGGSCKDDINSYECWCPFGFEGKNCELDVTCNIKNGRCEQFCKNSADNKVVCSCTEGYRLAENQKSCEPAVPFPCGRVSVSQTSKLTR chain 2: VVGGEDAKPGQFPWQVVLNGKVDAFCGGSIVNEKWIVTAAHCVETGVKITVVAGEHNIEETEHTEQNRSVIRIIPHHNYSAAINKYNHDIALLELDEPLVLNSYVTPICIADKEYTNIFLKFGSGYVSGWGRVFHKGRSALVLQYLRVPLVDRATCLRSTKFTIYNNMFCAGFHEGGRDSCQGDSGGPHVTEVEGTSFLTGIISWGEECAMKGKYGIYTKVSRYVNWIKEKTKLT |  |  | 157 | 
FIXa-Y155F/R318Y/T343R/E410N (enzyme) chain 1: YNSGKLEEFVQGNLERECMEEKCSFEEAREVFENTERTTEFWKQYVDGDQCESNPCLNGGSCKDDINSYECWCPFGFEGKNCELDVTCNIKNGRCEQFCKNSADNKVVCSCTEGYRLAENQKSCEPAVPFPCGRVSVSQTSKLTR chain 2: VVGGEDAKPGQFPWQVVLNGKVDAFCGGSIVNEKWIVTAAHCVETGVKITVVAGEHNIEETEHTEQKRNVIRIIPHHNYNAAINKYNHDIALLELDEPLVLNSYVTPICIADKEYTNIFLKFGSGYVSGWGRVFHKGYSALVLQYLRVPLVDRATCLRSTKFRIYNNMFCAGFHEGGRDSCQGDSGGPHVTEVEGTSFLTGIISWGEECAMKGKYGIYTKVSRYVNWIKNKTKLT |  |  |  | KD-WT/KD-mut [4]: 2.5; Kd [5]: 38 nM
FIXa-R318Y/R338E/E410N (enzyme, also called R150Y/R170E/E240N) chain 1: YNSGKLEEFVQGNLERECMEEKCSFEEAREVFENTERTTEFWKQYVDGDQCESNPCLNGGSCKDDINSYECWCPFGFEGKNCELDVTCNIKNGRCEQFCKNSADNKVVCSCTEGYRLAENQKSCEPAVPFPCGRVSVSQTSKLTR chain 2: VVGGEDAKPGQFPWQVVLNGKVDAFCGGSIVNEKWIVTAAHCVETGVKITVVAGEHNIEETEHTEQKRNVIRIIPHHNYNAAINKYNHDIALLELDEPLVLNSYVTPICIADKEYTNIFLKFGSGYVSGWGRVFHKGYSALVLQYLRVPLVDRATCLESTKFTIYNNMFCAGFHEGGRDSCQGDSGGPHVTEVEGTSFLTGIISWGEECAMKGKYGIYTKVSRYVNWIKNKTKLT | 12.4 | 7.7 |  | 
FIXa-D104N/K106S/K247N/N249S/N260S (enzyme) chain 1: YNSGKLEEFVQGNLERECMEEKCSFEEAREVFENTERTTEFWKQYVDGDQCESNPCLNGGSCKDDINSYECWCPFGFEGKNCELDVTCNIKNGRCEQFCKNSANNSVVCSCTEGYRLAENQKSCEPAVPFPCGRVSVSQTSKLTR chain 2: VVGGEDAKPGQFPWQVVLNGKVDAFCGGSIVNEKWIVTAAHCVETGVKITVVAGEHNIEETEHTEQNRSVIRIIPHHNYSAAINKYNHDIALLELDEPLVLNSYVTPICIADKEYTNIFLKFGSGYVSGWGRVFHKGRSALVLQYLRVPLVDRATCLRSTKFTIYNNMFCAGFHEGGRDSCQGDSGGPHVTEVEGTSFLTGIISWGEECAMKGKYGIYTKVSRYVNWIKEKTKLT |  |  | 1260 | 
